Measured values reported in the DeepSol protein solubility set.

assay: soluble on expression in E. coli; label from the status in PepcDB or PDB records

| Sequence | soluble on expression in E. coli |
| --- | --- |
| MSLRTYLPGESEEVLSEGWTLTLTPADACETPSDIPASLESLHVSVPGTVGQALEAAGKFDRLAPVALNDRDAWYRLTMISDARERAILRFDGLSTIAEIFFNGELIAASQSMFERLEVPVQMTGADELSICFRALAPRLEKPGPRARWRPQMMNTQGLRLIRTTALGYMPGWCPEIHSAGPWRPISLIKQDGVLCTLRSSLDDTGTGKVSIVLQANRDIQSARLICAGYSINLSKAEDGKLLGELIIPGVEIWWPHTHGRPALHEVVLELDGNQHRLGRTGFRQVEIDHGEDGNGFGLKVNGQPVFCRGAVWTTADIVRLPGTRPDYEPWLKKAAEAGMNMIRVGGTMAYETPEFFALCDELGIMVWQDAMLANFDYPAKDDGLRQHIVMEIEQLLESTALSPSFAIFCGGSEMYQQGAMLGLPEQIWKGTLTEEILPELVAEKRPDAAYVANSPSGGALPFFPNAGVGHYYGVGAYCRPLEDARRADLRFAAECLAFANIPEQETLDRYLPGVAVHDPRWKARTPRDRGASWDFEDVRDHYLKLLYEAEPDVLRREDGALYLDMSRAATAEVMEATFAEWRRSGSSCQGALVWTLQDLVPGAGWGIIDAAGRPKSVWHALKRAFRPVQVSLSDEGTNGLDIHILNDTGDSLNTMLELTCLREGLQPVVHAKRPLALLPRESQTIAATDLFGAFFDTTYAYRFGPPSHDVTIARLRDIATGHVIADAFHFPLGRKKALHAANLQVAISETNGHWSLEIGTDRLAQSVHITAEGYRACESWFHLGPGEARKIGLLPETATTEAPPSGEVVSLGSSRRFSEGHHHHHH | not soluble |
| MSLRVENLRSSTYRNGPTGLPNRARFSEDLDAVLLQRTADSAATAIAVDLCGSDYFRDMVKALGWDYADGYVALAYKRLISKLPAGTALYRLDTTTFAFMVTTADPLRLSALCSKISKGFVAPLEHQGIPHTAVASIGAVLLETSYGAADTLRSLTTSVDVAREHCLTWSLYERKHDVVQRNTFRLLAALPAALASSNQLRLHYQPRVDLHDHRCVAVEALLRWQHPMIGPVMPSDFIPMAEKTALINRITAWVIDQGIAQAARWQQQGLDFNLALNVSAADLDQPGFVGLLRRGLDRHKLDPRRLEIEFTESAMIRHPEHLSEQLAAVAALGVHIAIDDFGTGYSNFSYLKQLPASSLKIDQSFVRSLPDSRTDRTLVPAMIQLGHSLGQRVVAEGIESAQAYAQLRSWGCDEGQGYWIAKPMPAAALEAWLETPWYQRATDAEGHHHHHH | soluble |
| MSLSAADMTQTIKTLALNVRLSCELLGVPESSYYERINRRPSETQLRRQHLTLKIVQLFKANRGIYGAPKIHHLLLDKEEKVGVKLVQKIMQQLQLKSVVLKKFKPGYSASDGINRKNLVQNEPTERNKVWSTDITYIPTQQGWAYLSTIMDRYTKKVIAWDLGKRMTVELVQRTLNKAIKSQDYPEAVILHSDQGSQYTSLEYEELLKYYGMTHSFSRRGYPYHNASLESWHGYLKREWVYQFKYKNFEEAYQSIFWYIEAFYNSKRIHQSLGYLTPNQFEKVSAEGHHHHHH | not soluble |
| MSLSALFCQAAAVAVTISGFAFSPAQTTVQVGDVITWTNMDNTLHSIVSTAVPAGAAPFTSGTFGKNETFTYTVTEAGDYTYQCGVHTSMLGAFTATITTPVVKPTLILEALYPNPASASIHIESPKSIKSIDIYSETGVLVKTLAFTSASVDVPIGELNKGAYLLRITSEDGMFDTRRIIKEGHHHHHH | soluble |
| MSLSATSNSNWDRRSVLRAAAGLAALGPLAACGSNTGRSGGGSSGESLVQYFHAYGEAGTEQAIRRYAKAYDKAAVTTQWITGTNFESKLFSALLTDNAPDVFEFHPQLQMIKSGQVAALDDIIDPVKDDFNPADITSHTVDGKVYGVRMIDDPQFFFYRKSLLEKAGTGVPQTLDELAEAAAKLTTDKVKGLFLGNNMVAPNYALVWAAGADQLNAKNEIAYHTDEVAAALKVYRKMFTSGHLLLDAPADYWDPSALVQGLTAIQWCGMWAMPVMQQALGDDLGIFPFPSAASGAKPAVYNGGWSMFVNAKGKNVDLAKEYVKWLWIDQKKYQEDWALSYGFHIPPRTSTAESATKLKSGLPAEGVKLFTDYGRFDNVSWTQAMISALEGVIADAVRKGKDPEAALDTADKKVNRELKNLFGEGHHHHHH | soluble |
| MSLSCWKPLSKEEFEAIVSKYKDNPKIEIDYENLKFIPKFNEQIKKYYSNKIKGAKVENLVNEVYEAWFDYIIRIYERPKEKDILMFLPCAAKKPYYKSKTHRTIQRAISGFQIFNRIHRVIVSNPGIIPWEFHTYWPFNSYDWPEWEETEDIKKLYYWVTYKRVKEFLRRHQYNYYTVYMKPDSLTYKAVMDASKELNIKIIPLLDEKTYEKCKGQGNPLVKEPCIESLKNNLKQLQKQIYEGSNSEGHHHHHH | soluble |
| MSLSDDPMASIKLLNLERENSAIAQYQSNIANLKTTLSSQETHLDSVNESLKSMRDIVLWGANGSLTDQDRSGMITELKSYRDSIESSFNAQDEEGHFLFSGTKTDTAALNKSSGAYVVEGNSDVRVVTVAKGVTMDSNMTAQEILDIGGGKNVLNQIDALIAEFEKPSPNFQAEVDASLNAIDDTMANVLGAMTEIGGRHNNLDLMDGAHSENKLFVDKVSGDLSALDYGEASVRLSNYMAALQATQASYVKINDLSLFDREGHHHHHH | soluble |
| MSLSEDLFDVEVRNFEEGDKVTGTVTSVEDKQVYVGIPGSKLDGVVPISELSNIHVETASDVVSVGDTLDLIVTKVEDDILVLSKRKVDAEKASDDIKAKFESGEVFEAVVSDVVKGGLVVDLGVRAFVPASLVEDHFVEDFADYKGTTLTFKVVEFEPENNRVILSHRAVVETEKASQKQALLSEIKEGDVIEGTVQRLANFGAFVDIGGVDGLVHISQISYKHIATPQEALEEGQKVTVKVIGIDPENERISLSIKATLPGPWDGIAEKAPVGSVLEGKVVRLVTFGAFVEIFPGVEGLVHISQISHEHIGTPQEVLSEGQTVEVKVLEVNEADKRLSLSIKELKDAPVEEADYELPEENTGFQMSDLIGDKLKGLQNDDKEGHHHHHH | soluble |
| MSLSEFLTKNEEKIEKIVKFHRSFDEMSQTQRQAWLEEMGDINIEHFFKANQRVFDEDGPRERSIPRRDFFLDVIKNRVKSDPLLQPKGHPVTNYLQENIHIRKLCEKITDTFCVEEIASYDAALNLLYELSKIHTHYLRKEDQLFPYLEKHNFTYPSTGMWKFQDEIRANLKMVIKAFEKNELNKEMQTLMRDVVKDIFDMTTREEKMLLPTSVKLLSNEEWIKMRKEEQEIGYVFIQSPPMWPEDESHKPDMASSLGSIFLQEGSLSQEQLNLFFSHLPFDVTFVDENDRVAFFNKGSERTFLRSAGVIGREVKFCHPPKSVDAVLKILEAFKAGTKESAEFWITFGGRLIHIRYFALRDSEKNYKGVVEITQDITDIKNIEGERRLLDWEEGHHHHHH | soluble |
| MSLSEIDQVSYNFHIRPILSDKCFACHGPDANKREADLRLDTEEGAFKALKESPGKFALVSGKPEESELFHRITSEDPGELMPPTESNLVLSDTEIGLIKKWIEQGAEYEPHWAFTKAEKPELPSENEWAVNEIDRFVYQKMVEKGLEPNPKADPQELIKRASLDITGLPPSPEILDQYSDLSNDAYQNLLDGLLADPSFGEKLGVLWMDISRYADSYGYQDDNIRSQWPYRDWVIHAFNENMPYDQFITYQLAGDLLPNATKEQILATAFNRNHKYTEEGGVIDEEYRIEYVLDKTNTFSKGVLGITMECAQCHDHKYDPFSQKDYYELFAFFNNTPEKGYEGDVSVSKPAKTPILWVDQEGHHHHHH | soluble |
| MSLSFELNPIFKRPSVSRELTKRFFFSANNGTRIILFQDSTIRWSFSSDNDHYQSMALRDSDMDVTGAIISDPGDYLCLYNSHQIRVIEIPWGLTNVDEISNSMASSLQERVYNFNEDKLSVKQVLFHPLSKSSPFLVVLFSGSQIAFVDLKNVFKSSDIPIDCFLNLTDSNVMGIDNRVENIQYVVFADDCLSLYSLTDTDVYCFYPCLPPVASLSKNRVDELINKSIVLYENLGIDADDIVRKNVIKQLQLASSLRKKIEEFENANGEVEVNVEIDLEFRQTKAQGYFSISPYPESLYTCTGKQISVLPIGEGNELFLVSFDNGTVLVVFKDKESTMSWDVNDYSFNNSFTLVEIIKFKPEELSNMVVLQGELGKFVVSGEKSTILVDTTKWSSVISKCIRDNDLRPLVGLEMKSTITHINSDMQINSCGIWNSGEAKSLLLVDTNVVVGYQLFKKEVEFKPESAEEISTELENFTLDKFTVPENELKAANYKFQEAVSVPYSKVIPANIKQVPFGSNAMEEQLKILNDISRDVGSKIVQGQSLGLMLYDRLLEQQDKLSEQLIITNKILIRAKKVQGDYPAQLSKLDEKLKKQEHLEKILLKMESNLNTIQESQKLKSLPLSEKEIQLFKELRSQILLFNNFVHKQKDQKQNIQFLKKELQKIIDISRSESSKGMLNEWEELRQILADDAKIIKECNEQLTQISKELDTKNTVTNSEGHHHHHH | soluble |
| MSLSHLVVFDLDGTLTRQRGGFELLHTLYGTTPEAETLMNRFEAGEITFTEWCQGAVDMWRANDITRSDITRATRALKPKAGAVDLLAHLQQTDIRFGILSAGVANLAARFEPYEPAFVRGNWLQFEDRRVSAIDIGVGPNEKGELLRKIRSKQNPVSITYIGDSHTDTEAFIEADTAVLFDPDERVPETAIDAADTIIESADIAEVQNCIPTEGHHHHHH | not soluble |
| MSLSIADNLKQVLAELPQGVRLVAVSKFHPNEAIEEAYQAGQRIFGESKVQEMTAKYETLPKDIEWHFIGHLQTNKIKYMIPYVEMIHGIDTYKLLAEVNKQAAKAGRIVNCLIQIHVAQEETKFGFSPEECKDMLHAGEWKELSHIRICGLMGMASNTDDVEQINREFCLLNRLFQEIKANWFADSDTFRELSMGMSHDYHEAIAAGSTLVRVGSKIFGERNYNTEGHHHHHH | soluble |
| MSLSINSETLVNHMNHEIAAIQPSDILAFNAEIANIPGIVRLTLGEPDFNTPEHVKQAAIESIEADESHYAPSNGTLALRTAAAEFLAAKYDVHYDPASEVIITAGATGGIYTALTSILNPGDEVLIPTPIFPLYIAIVKLSGATPVFMDTSDNGFVLSPDQLQTTLAAHPKTKAVVLNFPSNPTGVTYRHDDLKALAAVLADQPIFVLSDEIYSELTYGEPHESIANYLPTQTILLNGVSKSHAMTGWRIGIMCAPKAITAQLGKIHQFTVTSTTTNAQAAAAGLKQLTSRTAGVDTIDIPAAKAAGLVVTNVEGHHHHHH | not soluble |
| MSLSIPLILASQSRPRRDVLFSAGICPTIRVSHVDEPAALEREAAALGVTVNDLSVEQRVMILATAKAEAVHQAYRNIADTAAHARGERVVGFPLRAADDRDASSAGTAARTDSAQSADETKTRDFSGIAIPTVAEPIADFVDGRPSLTRSKAGPLILGCDSMFLLDGECYGKPHSEEVARERLRAMRGATGELWTGHCLIDFASGRMVRGASKATLHFCEYSDLDIERYIATGEPLEVAGSFTLEGFGGAFIDSIEGDPHGIIGLSLPLARRLAAQLGVEWTDLWNVTRSDLAPDAEYDAKTGAAKPLPPKENVHQPGDGWVDCACGRKHWGTNGASGVLLARRSETTGEVTHVVMQHRAVWSAEGGTWGIPGGATADGESPIEGALRESYEEANITPEDIDVVGSYCEDHGPWSYTTVFAFEKPGHRIEPKANDDESMEIEWVPVDDVPNRKLLTAMRTDWPNFAARLRALAAVREGHHHHHH | soluble |
| MSLSISEKPLSELLRPKDFEDFVGQDHIFGNKGILRRTLKTGNMFSSILYGPPGSGKTSVFSLLKRYFNGEVVYLSSTVHGVSEIKNVLKRGEQLRKYGKKLLLFLDEIHRLNKNQQMVLVSHVERGDIVLVATTTENPSFVIVPALLSRCRILYFKKLSDEDLMKILKKATEVLNIDLEESVEKAIVRHSEGDARKLLNTLEIVHQAFKNKRVTLEDLETLLGNVSGYTKESHYDFASAFIKSMRGSDPNAAVYYLVKMIEMGEDPRFIARRMIIFASEDVGLADPNALHIAVSTSIAVEHVGLPECLMNLVECAVYLSLAPKSNSVYLAMKEGHHHHHH | not soluble |
